Among the data in paper PMC5350145, “Either fadD1 or fadD2, Which Encode acyl-CoA Synthetase, Is Essential for the Survival of Haemophilus parasuis SC096” (Frontiers in Cellular and Infection Microbiology, 2017) are Km, kcat and kcat/Km values, retold here.

Common to all, as to test: DTNB free-thiol (CoA) assay, Hanes-Woolf
The target of series [1] is T1, FadD1 (Glaesserella parasuis, UniProt B8F3K7).
T1 construct: gene lcfA; full length, His-tagged in pET28b (NdeI/HindIII), no tag removal described; E. coli BL21 host; locus tag is that of strain SH0165
T1 sequence (B8F3K7 1-566): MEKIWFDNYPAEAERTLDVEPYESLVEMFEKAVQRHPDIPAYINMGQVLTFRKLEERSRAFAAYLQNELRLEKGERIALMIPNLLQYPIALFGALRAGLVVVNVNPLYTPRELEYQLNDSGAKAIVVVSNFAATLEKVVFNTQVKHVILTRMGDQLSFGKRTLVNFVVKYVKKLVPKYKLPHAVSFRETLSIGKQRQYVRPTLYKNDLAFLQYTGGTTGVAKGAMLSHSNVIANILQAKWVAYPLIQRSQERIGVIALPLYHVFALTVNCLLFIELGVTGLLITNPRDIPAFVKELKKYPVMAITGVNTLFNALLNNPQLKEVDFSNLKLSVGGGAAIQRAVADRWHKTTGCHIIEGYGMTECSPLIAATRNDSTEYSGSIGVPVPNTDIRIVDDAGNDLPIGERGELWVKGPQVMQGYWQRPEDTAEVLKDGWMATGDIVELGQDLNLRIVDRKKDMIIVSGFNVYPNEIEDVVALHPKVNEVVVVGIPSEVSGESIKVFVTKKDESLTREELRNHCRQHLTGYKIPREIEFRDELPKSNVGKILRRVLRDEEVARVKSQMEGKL
Type of series: biochemical. As to conditions: 5 mM ATP, 0.5 mM CoA, 10 mM MgCl2, 0.1% Triton X-100, pH 7.2, 37°C; read-out: Kinetic parameters^a / Km^c. The source says: (§1) DTNB free-thiol (CoA) assay, Hanes-Woolf on FadD1

Substrate in series [2]: CCCCCCCCCCCCCC(=O)O
It counts as biochemical, Glaesserella parasuis. The note with it: 5 mM ATP, 0.5 mM CoA, 10 mM MgCl2, 0.1% Triton X-100, pH 7.2, 37°C.
Source text: as §1

Substrate in series [3]: CCCCCCCCCCCCCCCC(=O)O
It counts as biochemical, Glaesserella parasuis. The note with it: 5 mM ATP, 0.5 mM CoA, 10 mM MgCl2, 0.1% Triton X-100, pH 7.2, 37°C.
Source text: as §1

Substrate in series [4]: CCCCCCCCCCCCCC(=O)O
Type of series: biochemical, Glaesserella parasuis. As to conditions: 5 mM ATP, 0.5 mM CoA, 10 mM MgCl2, 0.1% Triton X-100, pH 7.2, 37°C. An excerpt:
(§2) DTNB free-thiol (CoA) assay, Hanes-Woolf on FadD2
This is another data set of the same source.

Substrate in series [5]: CCCCCCCCCCCCCCCC(=O)O
Type of series: biochemical, Glaesserella parasuis. The note with it: 5 mM ATP, 0.5 mM CoA, 10 mM MgCl2, 0.1% Triton X-100, pH 7.2, 37°C.
Source text: as §2
The source holds these as a separate data set.

In the case of `CCCCCCCC/C=C\CCCCCCCC(=O)O` [C18:1], the Km in series [1] was determined as 15.6 µM.

B1: FadD1 (Glaesserella parasuis SH0165) (protein)
chain: MEKIWFDNYPAEAERTLDVEPYESLVEMFEKAVQRHPDIPAYINMGQVLTFRKLEERSRAFAAYLQNELRLEKGERIALMIPNLLQYPIALFGALRAGLVVVNVNPLYTPRELEYQLNDSGAKAIVVVSNFAATLEKVVFNTQVKHVILTRMGDQLSFGKRTLVNFVVKYVKKLVPKYKLPHAVSFRETLSIGKQRQYVRPTLYKNDLAFLQYTGGTTGVAKGAMLSHSNVIANILQAKWVAYPLIQRSQERIGVIALPLYHVFALTVNCLLFIELGVTGLLITNPRDIPAFVKELKKYPVMAITGVNTLFNALLNNPQLKEVDFSNLKLSVGGGAAIQRAVADRWHKTTGCHIIEGYGMTECSPLIAATRNDSTEYSGSIGVPVPNTDIRIVDDAGNDLPIGERGELWVKGPQVMQGYWQRPEDTAEVLKDGWMATGDIVELGQDLNLRIVDRKKDMIIVSGFNVYPNEIEDVVALHPKVNEVVVVGIPSEVSGESIKVFVTKKDESLTREELRNHCRQHLTGYKIPREIEFRDELPKSNVGKILRRVLRDEEVARVKSQMEGKL
notes: full length, His-tagged in pET28b (NdeI/HindIII), no tag removal described; E. coli BL21 host; locus tag is that of strain SH0165
As to B1, in series [2], the Km is 41.48 µM, the kcat was 0.083 s⁻¹ and the kcat/Km stood at 2010 M⁻¹ s⁻¹. In addition, in series [3], the Km came out at 39.90 µM, the kcat was 0.098 s⁻¹ and the kcat/Km came out at 2450 M⁻¹ s⁻¹.

B2: FadD2 (Glaesserella parasuis SH0165) (protein)
chain: MASLDFHFVNRFRLQAKKWLNRTALRFREQAQWQEMSWQTFQQEIDRFSYALIAQHIDIQDKIGIFANNMPRWTIADFGAMQARAVAVPIYATNTAKQVEYIVNDADIKILFVGDQEQLDQVCQIANNCPQLMKIVAMKANMDLRDLPNACYWEDFLDVVPNEAEFEKRLNSKQLSDLFTLIYTSGTTGEPKGVMLDYANLAHQLNAHDLALNVNEDDVSLSFLPLSHIFERAWVAYVFHRGATNCYLEDTNHVRDALTTLKPTVMCAVPRFYEKIYTAVWDKVEKAPAHRRALFNWAIRVGEKHYQTEQPSQWLRLQYALADKLVLTKLRALLGGRIKMMPCGGAKLEASIGSFFHSIGINIKLGYGMTETTATVSCWQDKGFNPNSIGTLMPNAEVKIGEENEILVRGGMVMRGYYKKPEETAKAFTEDGFLRTGDVGEMDSCGNLFITDRLKELMKTLNGKYIAPQYIEGKIGKDKFIEQIAVIADAKKYVSALIVPCFDSLEEYAKQLNIKYQDRIELIKHSDIIQMFERRIHELQKELPSFEQVKKFTLLPQAFSTAMEEITPTLKLRRKVIMQRYREQIEEMYNERSLT
notes: as for B1
Consider B2, for which, in series [4], the Km stood at 173.40 µM, the kcat was 0.002 s⁻¹ and the kcat/Km came to 10 M⁻¹ s⁻¹. In series [5], the Km was found to be 128.30 µM, the kcat amounted to 0.020 s⁻¹ and the kcat/Km is 160 M⁻¹ s⁻¹.
